From PMC11771145 (Nature, 2024)

Molecular target: the molecule itself
Assay: cryo-EM, 2D class averages

B1: Vitiosangium bGSDM, engineered with a thrombin site and cleaved by thrombin (active N-terminal pore-forming domain) (domain or fragment, Vitiosangium sp. GDMCC 1.1324)
chain: SGLCSDPAITYLKRLGYNVVRLPREGIQPLHLLGQQRGTVEYLGSLEKLITQPPSEPPAITRDQAAAGINGQKTENLSFSIGINILKSVLAQFGAGAGIEAQYNQARKVRFEFSNVLADSVEPLAVGQFLKMAEVDADNPVLKQYVLGNGRLYVITQVIKSNEFTVAAEKSGGGSIQLDVPEIQKVVGGKLKVEASVSSQSTVTYKGEKQLVFGFKCFEIGVKNGEITLFASQLVPR
stoichiometry N: 48 to 54 protomers
